Tests used:
[1] = target: phenylalanyl-glycyl-phenylalanyl-glycine
[2] = target: phenylalanyl-glycyl-phenylalanyl-hydroxylglycine

Enzyme activity n mole/h/ml medium; substrate PheGlyPheGly, product PheGlyPhe-hydroxyGly [1]	Enzyme activity n mole/h/ml medium; substrate PheGlyPhehydroxyGly, product PheGlyPhe-NH2 + glyoxylic acid [2]	Substance
0.4 nmol/h/mL	10.8 nmol/h/mL	enzyme expressed by plasmid SV-b (rat; signal sequence + C-terminal domain) (from UniProt P14925)
2.8 nmol/h/mL	< 2 nmol/h/mL	enzyme expressed by plasmid SV-a (rat; signal sequence + N-terminal domain) (from UniProt P14925)
2.5 nmol/h/mL	4.2 nmol/h/mL	enzymes expressed by plasmid SV-203 (rat; signal sequence + N-terminal domain + C-terminal domain) (from UniProt P14925)

— patent publication US6156555
